Values belong to the binder of their own block, whether it stands above or below them.
How the values were obtained:
[1] = target: T1, endogenous IRF3 of HEK293T cells (human (endogenous in HEK293T)), Q14653; experiment: native gel or EMSA; native PAGE (deoxycholate in the cathode buffer, on ice) of HEK293T lysates, Western blot; cells stimulated with poly(I·C) 10 μg/ml for 12 h, with or without Flag-FAF1; details: remark: other sources report otherwise
T1 chain: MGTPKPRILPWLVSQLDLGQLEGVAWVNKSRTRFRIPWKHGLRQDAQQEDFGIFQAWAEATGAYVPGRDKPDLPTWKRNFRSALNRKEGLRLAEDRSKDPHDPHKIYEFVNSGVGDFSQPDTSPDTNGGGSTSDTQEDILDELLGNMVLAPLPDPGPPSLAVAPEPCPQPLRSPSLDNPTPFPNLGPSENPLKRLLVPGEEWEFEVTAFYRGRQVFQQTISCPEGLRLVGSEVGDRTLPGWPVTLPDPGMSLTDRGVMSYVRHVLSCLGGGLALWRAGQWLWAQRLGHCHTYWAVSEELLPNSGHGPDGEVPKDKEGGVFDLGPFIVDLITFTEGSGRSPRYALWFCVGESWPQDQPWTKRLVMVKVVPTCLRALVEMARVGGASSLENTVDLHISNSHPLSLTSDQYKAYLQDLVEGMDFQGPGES

[2] = target: T2, GFP-tagged wild-type IRF3 (IRF3-WT-GFP), in HEK293T cells, Q14653; experiment: as above; details: remark: other sources report otherwise
T2 chain: T1 chain

stoichiometry N [1]: 2
B1: endogenous IRF3 of HEK293T cells, Q14653 1-427 (natural protein)
chain: T1 chain

stoichiometry N [2]: 2
B2: GFP-tagged wild-type IRF3 (IRF3-WT-GFP), in HEK293T cells, Q14653 1-427 (natural protein)
chain: T1 chain

Source: publication PMC4800795
